# Source: patent US20260069676A1 (University of California, published 2026)
# T1: MHC I (H2Kb) on dendritic cells (;mouse, UniProt P01887 21-119; P01901 22-369)
# T1 construct: whole, on cells; also called MHC I molecules of DC2.4 cells
# T1 sequence (MHC heavy): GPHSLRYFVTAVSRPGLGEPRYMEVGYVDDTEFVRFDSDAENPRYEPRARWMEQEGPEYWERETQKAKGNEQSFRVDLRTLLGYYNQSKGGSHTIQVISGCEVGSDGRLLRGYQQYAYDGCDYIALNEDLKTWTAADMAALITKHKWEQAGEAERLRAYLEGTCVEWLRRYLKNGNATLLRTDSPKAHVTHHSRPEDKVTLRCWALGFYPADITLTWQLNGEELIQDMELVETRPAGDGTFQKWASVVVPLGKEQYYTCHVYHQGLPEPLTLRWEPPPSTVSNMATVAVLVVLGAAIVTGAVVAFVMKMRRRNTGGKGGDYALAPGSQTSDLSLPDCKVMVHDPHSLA
# T1 sequence (b2m): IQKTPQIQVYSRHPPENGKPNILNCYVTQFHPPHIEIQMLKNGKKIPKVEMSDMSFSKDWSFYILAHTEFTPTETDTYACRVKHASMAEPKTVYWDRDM
# Target: T1, MHC I (H2Kb) on dendritic cells
# Experiment: competition with pre-loaded SIINFEKL on dendritic cells, flow cytometry with SIINFEKL/H2Kb-specific antibody
binder,measurement,value
"LTDEMIAQY (Synthetic peptide (Anaspec), derived from the SARS-CoV-2 spike protein; also called LTD peptide (MHC I); LTD-MHC I peptide) [LTDEMIAQY peptide (MHC I peptide, SARS-CoV-2 spike T cell epitope)]",binding result,binds
